Test results taken from patent US20110152166A1, “METHOD OF MODULATION OF PROTEIN PHOSPHORYLATION-DEPENDENT CONFORMATIONAL TRANSITIONS WITH LOW MOLECULAR WEIGHT COMPOUNDS” (priority 2006, published 2011).

Target: GST-S6K11-365 (Rattus norvegicus, UniProt P67999)
Test: Global amide hydrogen exchange (HXMS)
Design: made in house
Conditions: early time points; peptide 150 molar excess
Description: (A) Effect of S6K1 tail peptides, described in the legend to FIG. 13, on global deuteron uptake by purified GST-56K11-365. (B) Kinase activity of wt and mutant GST-PKCζ. (C) Global deuteron uptake by wt and mutant GST-PKCζ. (D) Local deuteron uptake by wt and mutant GST-PKCζ. In the PKCζ model, peptides showing strong and no-or-slight protection by the tail phosphate are shown in pink and grey, respectively. The panels show HX curves of the peptides. Experiments were repeated 2 times (A, C, D) or 3 times (B) and data are means±range (A, C) or ±SD (B)
Amide hydrogen (^1H/^2H) exchange monitored by mass spectrometry (HXMS). D2O (99.9 atom % D) was obtained from Cambridge Isotope Laboratories. Isotopic exchange was initiated by diluting 8 μl 20-40 μM protein in 300 μl deuterated buffer (25 mM Tris, 150 mM NaCl, 1 mM dithiothreitol, 10 mM MgCl2, 25 mM glutathione, pD 7.1 uncorrected value). The exchange was carried out at 30° C., and 75 μl aliquots were collected after 1 min, 5 min, 15 min, and 45 min. […]
The LC setup was described previously (Jorgensen et al., 2004), with the modification that proteins were desalted for 5 min and eluted with a 9 min linear gradient (14% to 70% acetonitrile, 0.05% TFA) to separate the free GST from the GST-tagged kinases of interest in the global hydrogen exchange analysis. […] The HXMS data on peptide level were analyzed by HX-Express (Weis et al., 2006). […]

Chain of GST-S6K11-365 (P67999 24-388): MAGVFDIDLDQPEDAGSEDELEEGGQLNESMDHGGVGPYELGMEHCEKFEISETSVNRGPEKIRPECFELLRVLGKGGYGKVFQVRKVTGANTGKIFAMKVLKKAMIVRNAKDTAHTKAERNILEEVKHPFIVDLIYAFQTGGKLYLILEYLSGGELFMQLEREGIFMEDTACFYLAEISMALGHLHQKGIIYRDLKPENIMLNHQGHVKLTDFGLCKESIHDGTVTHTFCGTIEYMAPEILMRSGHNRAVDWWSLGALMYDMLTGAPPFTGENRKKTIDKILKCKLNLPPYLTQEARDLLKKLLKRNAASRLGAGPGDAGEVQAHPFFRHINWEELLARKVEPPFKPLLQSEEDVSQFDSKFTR

fewer deuterons incorporated in S6K11-365 versus no peptide | Substance
no effect | S371/T389: synthetic S6K1 tail peptide (residues 366-395), non-phosphorylated
≈ 10 deuterons | S371/pT389: synthetic S6K1 tail peptide (residues 366-395) phosphorylated in the HM
